Results on 19 variants are retold here after the RNAGym collection of RNA variant scans (doi:10.1073/pnas.2313332121).

The labels stand for the following.
B1: TPR 5TU (parent)
chain: GGAUCUUCUCGAUCUAACAAAAAAGACAAAUCUGCCACAAAGCUUGAGAGCAUCUUCGGAUGCAGAGGCGGCAGCCUUCGGUGGCGCGAUAGCGCCAACGUUCUCAACUAUGACACGCAAAACGCGUGCUCCGUUGAAUGGAGUUUAUCAUG

Fewer inactive variants are shown than the library holds.

Variants of B1 are the subject of the data set. In words: polymerase ribozyme fitness, log enrichment relative to wild type (log ratio); higher = more active; in vitro selection for triplet polymerase activity. In a few lines:
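PCR was used to build mutant libraries for each subunit of a heterodimeric triplet polymerase ribozyme, which were then transcribed. A single in vitro selection round, in triplicate, used a frozen incubation at −7 °C and recovered extended constructs by gel excision, streptavidin beads and RT-PCR. Fitness is the logarithm of genotype enrichment relative to wild-type enrichment, averaged over replicates with inverse-variance weights. The logarithm is base 2, and after Illumina sequencing only genotypes with ≥10 input reads and ≥1 read per output were kept.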
For GGAACUUCUCGAUCUAGCAAAAAAGACAAAUCUGCCACAAAGCUUGGGAGCAUCUUCGGAUGCAGAGUGGGCAGCCUUCGGUGGCGCUAUAGCGCCAACGUUCUCAACUAUGACACGCAAAACACGACCUCCGUUGAAUUGAGUGUAUCAUG, the “polymerase ribozyme fitness (log ratio)” value is at most -4.2.

Consider GGUUCUGCUCGAUCUAACAAAAAAGACAAAUCUGCCACCAAGCUUGAGAGCAUCUACGGAUGCAGAGGCGGCAGCCUUCGGUCGCGCGAUAGCGCCAACGUUCUCAACUAUGACACGCAAAACGCGUGCUCUGUUGAAUGGAGCCUAUAAUG, for which the “polymerase ribozyme fitness (log ratio)” value was at most -4.2.

GGUUCUUCUCGAUCUAACAAAAAAGACAAAUCUGCCACAAAGCUUGAGAGCAUCUUCGGAUGCAGAGGCGGCAAGCUUCGGUGGCGCGAUUGCGCCAACGUUCUCAACUAUGACACGCAUAACGCGUGCUCUGUUGAAUGGAGUUUAUCAUG: the “polymerase ribozyme fitness (log ratio)” value was at most -4.2.

On to GGUUCUUCUCGAUCUAACAAAAAAGACAAAUCUGCCACAAAGCUUGAGAGCAUCUUCGGAUGCAGAGGCGGCAGCCUUCGGUGGCGCGACAGCGCCGACGUUCUCAACUAUGACACGCAAAACGCGUGCUCCGUUGAAUGGAGUUUAUCGUG, for which the “polymerase ribozyme fitness (log ratio)” value is -3.73.

As for GGUCCUUCUCGAUCUAACAAAAAAGACAAAUCUGCCACAAAGCUUGAGAGCAUCUUCGGAUGCAGAGGCGGCAGCCUUCGGUGGCGCUAUAUCGCCGACGUUCUCAACUAUGACACGCAAAACGCGUGCUCCGUUGAAUGGAGUUUAUCAUG, the “polymerase ribozyme fitness (log ratio)” value is at most -4.2.

In the case of GGAACUUCUCGCUCUAACAAAAAAGACAAAUCUGCCACAAAGCUUGAGAACAUCUUCGGAUGCAGAGGCGGCAGCCUUCGGUGUCGCGAUAGCGCCAACGUUCUCAACUAUGACACGCAAAACGCGUGCUCCGUUGAAUGUAGUUUAUCAUG, the “polymerase ribozyme fitness (log ratio)” value is -3.8.

For the variant GGUUCAUCUCGAUCUAACUAAAAAGACAAAUCUGCCACAAAUCUUGAGAGCAUCUUCGGAUGCAGAGGCGGCAGCCUUCGGUGGCGCGAUAGCGCCAACGUUCUCAACUAUGGCACGCAAUACCCGUGCUCCGUUGAAUGGAGUUUAACAUG, the “polymerase ribozyme fitness (log ratio)” value was at most -4.2.

Consider GGAACUUCUCGAUCUUACAAAAAAGACAUAUCUGCCACAAAGCUUGAGAGCAUCGUCGGAUGCAGAGGCGGGAGCCUUCGGUGGCGCGAUAGCGCCAACGUUCUCAACUAUGACACGCAAAACGCGAGCUCCGUUGAAUGGAGUUUAUCAUG, for which the “polymerase ribozyme fitness (log ratio)” value was at most -4.2.

Take GGUUCUUCUCGAUCUAACAAAAAAGACAAAUCUGCCACAAAGCUUGAGAGCAUCUUCGGAUGCAGAGGCGGCAGCCUUCGGUGGCGCGAUAGCACCAACGUUCUCAACUAUGACACCCAAAACGCGUGCUCCGUUGGAUGGAGUUUAUCAUG: the “polymerase ribozyme fitness (log ratio)” value was -3.

As to GGUUCUUCUCGAUCUAACAAAAAAGACAAAUCUGCCACAAAGCUUGAGAGCAUCUACGGAUGCAGAGGCGGCAGCCUUCGGUAGUGCGAUGGCGUCAAAGUUCUCAACUAUGACACGCAAAACGCGUGCUCCGUUGAAUGGAGGUUAUCAUG, the “polymerase ribozyme fitness (log ratio)” value is at most -4.2.

GGUUCUUCUCGAUCUAACAAAAAAGACAAAUCUGCCACAAAGCUUGAGAGCAUCUUCGGAUGCAGAGGCGGCAGCCUUCGGUGGCGCGAUAGCGCCAACGUUCUCAACUAUGACACGCAAAACGCGUGCUCCGUGGAAUGGAGUUUAUCAUG: the “polymerase ribozyme fitness (log ratio)” value was -4.19.

Turning to GGUUCUUCUCGAUCUAACAAAAAAGACAAAUCUGCCACAAAGCUUGAGAGCAUCUACGGAUGCAGAGGCGGCAGCCUUCGGUGGCGCCAUAGCGCCAACGUUCUCAACUAUGACACGCAAAACGCGUGCUCCGUUGAAUGGAGUGUAUCAUG, the “polymerase ribozyme fitness (log ratio)” value is -3.98.

In the case of GGUUCUUCUCGAUCUAACAAAAAAGACAAAUCUGCCACAAAGCUUGAGAGCAUCUUCGAAUGCAGAGGCGGCAGCCUUCGGUGGCGCGAUAGCGCCAACGUUCUCAACUAUGACACGCAUAACGCGUGCUCCGUUGAAUGGAGUUUAUCAUG, the “polymerase ribozyme fitness (log ratio)” value was -0.556.

For GGUUCUUCUCGAUCUAACAAAAAAGACAAAUCUGCCACAAAGCUUGAGAUCAUCUUCGGAUGCAGAGGCGGCAGCCUUCGGUGGCGCGAUAGCGCCAACGUUCUCAACUAUGACACGCAAAACGCGUGCUCCGUUGAAUGGAGUCUAUCAUG, the “polymerase ribozyme fitness (log ratio)” value is -0.472.

As to GGAACUUCUCGAUCUAACAAAAAAGACAAAUCUGCCACAACGCUUGAGAGCAUCUUCGGAAGGCGAGGCGGAAGCCUUCGGUGGCGCGAUAGCGCGAACGUUCUCAACUAUGACACGCAAAACGCGUGCUCCGUUGAAUGGAGUUUAUCAUG, the “polymerase ribozyme fitness (log ratio)” value was at most -4.2.

For GGUUCUUCUCGAUCUAACAAAAAAGACAAAUCUGCCACAAAGCUUGAGAGCAUCUUCGUAUGCAGAGGCGGCAGCCUUCGGUGGCGCGAUAGCGCCAACGUUCUCAACUAUGACACGCAAAACGCGUGCUCCGUUGAAUGGAGUUUAUCAUG, the “polymerase ribozyme fitness (log ratio)” value was -0.0606.

For the variant GGUUCUUCUCGAUCUAACAAAAAAGACAAAUCUGCCACAAAGCUUGAGAGCAUCUUCGGAUGCAGAGGCGGCAGCCUUCGGUAGCGCGAUAGCGCCAACGUUCUCAACUAUGACACGCGAAACGCGUGCUCCGUUGAAUGCAGUUUAUCAUG, the “polymerase ribozyme fitness (log ratio)” value was -1.17.

For GGAACUUCUCGAUCUAACAAAAAUGACAAAUCUGCCACAAAGCUUGAGAGCAUCUUGGGAUGCAGAGGCGGCAGCCUUCGGUGGUGCGAUAGCGCCAACGUUCUCAACUAUGACACGCAAAACGCGUGCUCCGUUGAAUGGAGUUUAUCAUG, the “polymerase ribozyme fitness (log ratio)” value was -0.18.

As to GGUUCUUCUCGAUCUAACAAAAAAGACAAAUCAGCCACAAAGUUUGAGAGCAUCUUCGGAUGCAGAGGCGGCAGCCUUCGGUGAAGCGAUAGCGCCAACGUUCUCAACUAUGACACGCAAAACGCGUGCUCCGUUGAAUCGAGUUCAUCAUG, the “polymerase ribozyme fitness (log ratio)” value was at most -4.2.
